Reference: the supplement of paper PMC10567573

B1: PSD2 (parent)
chain: LTHFSRRYCQCNPDDSTSEDGIHT

Variants of: B1
Assay: protein stability index of a GFP-peptide fusion (GPS, HEK-293T) (PSI 1-6); higher = more stable
Conditions: c terminus: a fixed tail appended
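Also: lentivirally expressed fusions sorted by FACS into six bins by GFP to DsRed ratio, PSI derived from sequencing read proportions per bin multiplied by bin number.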

Protein stability index: each site, then its substitutions
S18: T 2.57; L 2.35; A 3.7; D 4.03; Y 2.35; R 1.89; G 2.93; K 2.88; I 2.99; N 3.67; H 3.5; E 3.17; M 2.97; F 2.63; V 2.35; W 2.28; Q 3.43; P 3.58; C 3.69
S16: P 2.86; R 2.61; F 2.77; Y 2.88; M 2.64; K 3.48; T 2.94; I 3.18; E 3.96; H 2.95; V 3.15; A 2.57; L 3.15; G 3.09; C 2.75; D 3.17; Q 3.82; N 3.06; W 1.77
D15: F 3.21; K 2.28; A 2.69; N 2.41; Y 3.23; L 2.26; V 2.47; G 2.61; Q 2.35; R 2.63; C 2.91; I 2.1; S 2.96; W 2.14; M 3.21; E 4.1; P 2.46; T 2.79; H 2.86
T17: F 2.77; M 3.09; Y 2.39; D 4.02; H 3.18; S 2.78; P 3.68; N 3.6; G 2.7; R 2.78; W 2.17; A 3.02; V 2.78; I 2.85; E 3.41; C 2.72; Q 3.89; K 3.6; L 2.66
R7: I 3.64; C 3.15; T 4.01; K 3.53; L 3.74; Q 4.57; Y 2.92; M 3.84; V 3.13; D 4.69; A 3.3; S 3.51; G 2.93; P 4.46; N 3.75; F 3.26; E 4.43; H 3.8; W 2.32
E19: G 3.03; M 1.94; R 1.59; Y 1.93; Q 3.39; W 1.87; K 2.81; N 2.84; C 3.04; H 2.95; S 2.44; L 2.15; D 3.34; F 1.94; T 3.02; V 3.33; P 2.37; A 2.36; I 2.2
D14: R 2.24; H 2.14; A 2.09; N 2.45; M 2.27; K 2.49; Y 1.99; E 3.02; I 2.08; P 2.06; G 2.35; L 2.13; W 1.59; Q 2.54; V 2; S 2.49; F 2.04; T 2.13; C 2.8
R6: T 3.78; L 3.3; H 3.93; A 4.22; E 4.83; P 3.9; I 2.75; C 2.8; N 4.12; Q 3.49; V 3.08; W 2.95; M 3.29; D 4.93; K 3.21; S 4.02; Y 2.74; G 4.2; F 2.33
G21: W 1.96; E 4.26; N 3.33; V 2.79; A 3.57; P 3.57; Q 3.25; C 2.91; M 2.86; L 3.25; F 2.69; D 3.73; H 3.34; S 3.64; R 2.93; Y 2.68; T 4.09; K 2.95; I 2.63
D20: M 2.65; W 1.46; C 3.98; Y 1.81; H 2.99; N 2.5; I 1.97; E 3.64; R 2.27; S 2.42; K 2.74; T 2.86; Q 2.61; F 2.69; G 2.71; P 2.35; L 2.31
C9: E 4.16; M 4.16; P 4.64; Q 5.06; A 4.23; S 4.78; L 3.67; G 4.15; Y 4.06; W 3.57; I 3.96; R 4.1; V 4.13; F 3.83; T 4.12; N 4.09; K 4.39; H 3.84
Q10: S 2.55; M 2.19; P 3.41; C 2.63; W 2.51; T 3.35; F 2.25; D 3.84; K 2.71; V 2.9; Y 3.01; G 3.21; A 3.72; H 2.88; I 1.97; E 3.87; R 2.24; N 2.18; L 2.63
S5: H 3.36; Y 2.27; K 2.57; Q 4.35; N 3.69; P 3.4; L 3.06; G 3.78; W 1.94; E 3.97; D 4.38; I 2.34; R 2.53; V 2.67; C 2.71; M 2.89; T 3.42; A 3.43; F 2.18
F4: V 3.16; T 4.07; Y 2.85; W 3.31
I22: P 2.9; Q 3.85; N 3.98; L 3.24; D 4.27; E 3.87; M 3.49; A 3.91; K 3.12; F 2.72; H 3.7; G 3.66
Y8: H 3.88; P 4.36; C 3.01; Q 3.98; M 3.62; S 3.93; N 4.74; L 3.86; F 3.27; V 3.8; R 3.7; E 5.36; D 4.72; T 4.18; K 3.66; G 3.57; I 3.48; W 2.36; A 3.75
P13: C 2.73; I 2.68; H 2.76; Y 2.44; R 3.19; T 3.5; F 2.68; V 3.11; M 3.2; L 2.71; K 3.02; D 4.03; N 3.38; Q 3.06; S 2.84; W 1.94; A 2.83; G 3.91
C11: P 4.41; R 4.18; Q 4.71; M 3.84; Y 3.74; G 4.56; A 4.22; N 4.41; D 4.31; H 4.17; E 4.38; F 3.12; L 3.65; K 4.52; S 4.61; V 4.5; T 4.31; I 4.31
N12: Y 2.39; A 3.34; Q 3.13; E 4; R 3.21; P 3.63; K 3.37; T 3.69; M 3.52; C 2.82; W 3.13; L 2.96; V 3.11; G 2.83; I 2.77; F 2.69; H 3.67; D 4.66; S 4.01
